Laboratory results as given in PMC6975927.

Tests used:
[1] = molecular target: SCF^βTRCP (CUL1-RBX1 with full-length βTRCP2 (FBW11)-SKP1 complex) (human) (UniProt Q13616)
[2] = molecular target: SCF^FBW7 (CUL1-RBX1 with FBW7(263-C-terminus)-SKP1 complex) (human) (UniProt Q13616)

## UBE2D3 (from UniProt P61077 1-147) (enzyme)
[1]
  KM of UBE2D3 in multi-turnover ubiquitylation of 32P-labeled β-Catenin peptide by SCF^βTRCP: 0.488 µM
[2]
  KM of UBE2D3 in multi-turnover ubiquitylation of 32P-labeled Cyclin E peptide by SCF^FBW7: 1.67 µM

B1: UBE2G1 (enzyme)
chain: MTELQSALLLRRQLAELNKNPVEGFSAGLIDDNDLYRWEVLIIGPPDTLYEGGVFKAHLTFPKDYPLRPPKMKFITEIWHPNVDKNGDVCISILHEPGEDKYGYEKPEERWLPIHTVETIMISVISMLADPNGDSPANVDAAKEWREDRNGEFKRKVARCVRKSQETAFE
[2]
  KM of UBE2G1 in multi-turnover ubiquitylation of 32P-labeled mono-ubiquitylated Cyclin E peptide (Ub-Cyclin E) by SCF^FBW7: 1.3 µM
